Literature values in PMC6289583.

How the values were obtained:
[1] = biological target: Moesin (UniProt P26038)
[2] = biological target: ICAM-2 (Homo sapiens) (UniProt P13598)
[3] = biological target: EBP50 (Homo sapiens) (UniProt O14745); assay: SPR
Chain of EBP50 (Homo sapiens) (O14745 2-358): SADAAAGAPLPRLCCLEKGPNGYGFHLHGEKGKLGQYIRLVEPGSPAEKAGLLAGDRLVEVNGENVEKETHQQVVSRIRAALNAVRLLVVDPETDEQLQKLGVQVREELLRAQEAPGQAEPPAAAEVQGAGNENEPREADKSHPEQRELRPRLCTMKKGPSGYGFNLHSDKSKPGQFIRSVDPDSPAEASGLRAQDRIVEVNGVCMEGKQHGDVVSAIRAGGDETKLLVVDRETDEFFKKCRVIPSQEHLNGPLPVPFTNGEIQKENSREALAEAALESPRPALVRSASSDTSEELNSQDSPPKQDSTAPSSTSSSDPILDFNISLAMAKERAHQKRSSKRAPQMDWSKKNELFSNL

Chain of Ezrin (P15311 whole entry): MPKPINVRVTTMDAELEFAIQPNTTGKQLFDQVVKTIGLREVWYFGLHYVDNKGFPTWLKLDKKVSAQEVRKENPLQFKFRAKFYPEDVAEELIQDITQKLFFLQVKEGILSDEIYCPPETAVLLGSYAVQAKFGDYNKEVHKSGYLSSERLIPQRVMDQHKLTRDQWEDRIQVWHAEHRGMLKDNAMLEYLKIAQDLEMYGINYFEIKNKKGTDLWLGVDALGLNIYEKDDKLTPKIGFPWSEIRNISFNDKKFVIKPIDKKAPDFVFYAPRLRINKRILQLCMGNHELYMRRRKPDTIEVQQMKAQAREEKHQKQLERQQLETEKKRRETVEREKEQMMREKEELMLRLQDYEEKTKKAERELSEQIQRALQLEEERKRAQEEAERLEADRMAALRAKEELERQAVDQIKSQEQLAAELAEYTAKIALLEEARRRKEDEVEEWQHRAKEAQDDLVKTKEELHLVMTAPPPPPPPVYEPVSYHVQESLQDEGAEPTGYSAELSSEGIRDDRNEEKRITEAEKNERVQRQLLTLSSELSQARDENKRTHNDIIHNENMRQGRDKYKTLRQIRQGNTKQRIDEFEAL
Chain of Moesin (P26038 2-577): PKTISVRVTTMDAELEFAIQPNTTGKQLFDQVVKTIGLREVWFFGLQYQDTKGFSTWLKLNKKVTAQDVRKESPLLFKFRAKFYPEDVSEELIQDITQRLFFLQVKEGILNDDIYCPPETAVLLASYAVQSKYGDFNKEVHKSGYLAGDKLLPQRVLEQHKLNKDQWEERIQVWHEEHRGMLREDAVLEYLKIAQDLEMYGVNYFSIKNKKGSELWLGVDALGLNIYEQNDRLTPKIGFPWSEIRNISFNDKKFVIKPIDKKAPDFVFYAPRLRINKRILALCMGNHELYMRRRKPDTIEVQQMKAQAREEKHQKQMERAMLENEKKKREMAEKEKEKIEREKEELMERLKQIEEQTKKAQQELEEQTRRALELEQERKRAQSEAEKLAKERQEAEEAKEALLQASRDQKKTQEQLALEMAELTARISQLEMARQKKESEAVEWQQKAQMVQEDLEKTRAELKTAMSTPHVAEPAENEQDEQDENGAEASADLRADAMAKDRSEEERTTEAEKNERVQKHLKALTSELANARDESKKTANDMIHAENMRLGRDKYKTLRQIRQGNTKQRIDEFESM
Chain of ICAM-2 (Homo sapiens) (P13598 25-275): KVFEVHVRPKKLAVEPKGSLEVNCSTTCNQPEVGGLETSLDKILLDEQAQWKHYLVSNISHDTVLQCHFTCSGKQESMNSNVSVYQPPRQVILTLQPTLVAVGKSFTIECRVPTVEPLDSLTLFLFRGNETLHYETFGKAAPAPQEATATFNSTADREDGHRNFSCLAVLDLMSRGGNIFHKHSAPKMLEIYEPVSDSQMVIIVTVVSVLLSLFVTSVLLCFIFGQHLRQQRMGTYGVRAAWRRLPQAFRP
Chain of CD44 cytoplasmic domain (P16070 671-742): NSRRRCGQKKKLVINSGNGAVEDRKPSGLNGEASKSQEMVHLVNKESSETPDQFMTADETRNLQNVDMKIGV

## CD44 cytoplasmic domain (from UniProt P16070)
[1]
  Kd: 9.3 nM

## Ezrin (from UniProt P15311)
[2]
  Kd: 330 nM
[3]
  Kd: 58 nM
